Read-outs that look alike come from different tables or passages of the source.
Key:
Assay in all cases: AUC
[1] = target: FGF9^WT, purified recombinant wild type FGF9 (UniProt P54130)
[2] = target: FGF9^WT, purified recombinant wild type FGF9 (UniProt P54130); remark: listed apart in the source
[3] = target: FGF9^Eks, purified recombinant FGF9 with the Eks mutation N143T (UniProt P54130)

stoichiometry N [1]	Ka [2] [M⁻¹]	stoichiometry N [2]	Ka [3] [M⁻¹]	stoichiometry N [3]	Substance
2	1.04e+07	2			FGF9^WT, purified recombinant wild type FGF9 (from UniProt P54130 4-208) (natural protein)
			119000	2	FGF9^Eks, purified recombinant FGF9 with the Eks mutation N143T (from UniProt P54130 4-208) (natural protein)

— article PMC2676118
